In data set [1] the target is T1, Rhau55 (N-terminal fragment of RHAU/DHX36) (UniProt Q9H2U1 SEQ:3-55).
T1 sequence: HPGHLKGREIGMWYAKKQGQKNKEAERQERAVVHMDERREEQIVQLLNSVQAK
In words: NMR imino protons, mixture with T95_2T; only T95_2T peaks affected. As to conditions: tags: expressed in E. coli; non-parallel G4 form 1.

Data set [2] deals with T1, Rhau55 (N-terminal fragment of …). The data set can be described thus: EMSA; RNA G4; 70 mM KCl, 20 mM phosphate pH 6.8. As to conditions: tags: expressed in E. coli; parallel RNA G4. Here is the method:
(§1) The ratio between Rhau55 and Nucleic acids is indicated on top of each lane. DNA concentrations were fixed at 100 μM, in 70 mM KCL and 20 mM phosphate buffer (pH=6.8).

Data set [3] has the same target. In words: EMSA; 70 mM KCl, 20 mM phosphate pH 6.8. To be noted: tags: expressed in E. coli. Here is the method:
as §1
In general terms: A gel shift assay detects complexes by their altered migration in electrophoresis.

For data set [4] the target is unchanged. In words: EMSA; 70 mM KCl, 20 mM phosphate pH 6.8, room temperature. As to conditions: tags: expressed in E. coli; parallel (propeller) G4.

Broadly, the Kd is a measure of binding affinity in units of concentration.

For TTGGGTTAGGGTTAGGGTTAGGGA (structured_DNA) [HT1], in data set [1], the binding result was “no binding”.
Take UAGGGUUAGGGU (ssRNA) [12-nt TER]: the binding result in data set [2] is reported as “binds”.
Consider AGGGGGGAGGGAGGGTGG (structured_DNA) [CEB1], for which the binding result in data set [3] (parallel G4) was “binds”.
Turning to GGGGTGGGAGGAGGGT (structured_DNA) [93del], the binding result in data set [3] (interlocked dimeric parallel G4) is “binds”.
As to GGGUUGCGGAGGGUGGGC (ssRNA) [TERC18], in data set [2], the binding result is listed as “binds”.
Turning to GGGUUAGGGU (ssRNA) [10-nt TER], the binding result in data set [2] is reported as “binds”.
As to TGAGGGTGGTGAGGGTGGGGA (structured_DNA) [Pu24T], in data set [3] (parallel G4), the binding result was “binds”.
Still for that read-out and setting: the entry for AAGGGTGGGTGTAAGTGTGGGTGGGT (structured_DNA) [CEB25] is “binds”.
Consider TTGGGTGGGTGGGTGGGT (structured_DNA) [T95_2T], for which the Kd in data set [4] was found to be 989 nM.

The values above are taken from US20160115201, “PEPTIDES BINDING TO PARALLEL-STRANDED G-QUADRUPLEXES” (NANYANG TECHNOLOGICAL UNIVERSITY, published 2016).
